The results in this text go back to patent US20240409635A1 (VIBRANT PHARMA, published 2024).

Assay in all cases: BLI, antibody on AHC sensor, antigen as analyte
(BLI is a label-free optical method that tracks binding on a fibre tip over time.)

For assay [1], the target named is T1, recombinant human protein CD3ε/δ (ACRO systems, CDD-H52W1) (human, UniProt P07766 23-126; P04234 22-105).
T1 construct: Bought heterodimer
The procedure:
(§1) Antibodies were first captured onto an anti-human IgG Fc coated AHC biosensor (Anti-hIgG Fc, Sartorius, 18-5060). Antibodies were diluted to 5 μg/mL and 1.5 nm protein was coupled to the AHC sensor surface in 0.02% PBST.
(§2) After the sensor captures the antibodies, it binds and dissociates with different concentrations of analytes to obtain the KD value of the interaction. The experimental parameters are as follows: Baseline1: 60 s, Loading: 240 s, Baseline2: 180 s, Association: 240 s, Dissociation: 600 s, High sensitivity kinetics: 2 Hz. Kinetic constants were derived based on the rate equation for 1:1 Langmuir binding to obtain equilibrium dissociation constants (KD). The Data Analysis HT 12 software (Sartorius, 50-5029) was used to simultaneously fit binding and dissociation curves to calculate Kₒₙ and Koff. The affinity KD was calculated based on the below formula: KD=Koff/Kₒₙ.

Assay [2] deals with T2, recombinant human tumor antigen HER2 (ERBB2, ACRO systems, HE2-H5212) (human, UniProt P04626 23-652).
T2 construct: Bought
The procedure: as §1, §2

In assay [3] the target is T3, recombinant human tumor antigen CEA (CEACAM-5/CD66e, ACRO systems, CE5-H5226) (human, UniProt P06731 35-685).
T3 construct: Bought
T3 sequence (looked up): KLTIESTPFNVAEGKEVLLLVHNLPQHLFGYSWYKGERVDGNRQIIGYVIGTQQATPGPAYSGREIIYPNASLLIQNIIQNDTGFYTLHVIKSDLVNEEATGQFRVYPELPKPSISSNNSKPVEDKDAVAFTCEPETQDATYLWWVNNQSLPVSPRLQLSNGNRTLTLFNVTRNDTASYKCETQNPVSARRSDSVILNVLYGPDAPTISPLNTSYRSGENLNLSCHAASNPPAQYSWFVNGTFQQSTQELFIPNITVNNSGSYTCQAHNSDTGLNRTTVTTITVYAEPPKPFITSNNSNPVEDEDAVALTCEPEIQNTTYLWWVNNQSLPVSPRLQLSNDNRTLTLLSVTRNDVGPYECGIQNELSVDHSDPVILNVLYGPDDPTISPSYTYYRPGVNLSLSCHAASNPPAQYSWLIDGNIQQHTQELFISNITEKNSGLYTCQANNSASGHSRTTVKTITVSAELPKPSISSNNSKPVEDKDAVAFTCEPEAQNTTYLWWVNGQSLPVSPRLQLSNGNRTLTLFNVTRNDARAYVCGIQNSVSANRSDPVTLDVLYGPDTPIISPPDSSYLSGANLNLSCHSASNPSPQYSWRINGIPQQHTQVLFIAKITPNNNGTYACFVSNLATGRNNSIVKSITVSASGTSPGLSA
The procedure:
as §1, §2

Where a chain is given by its changes, count along the chain named.

T1 sequence (P07766 23-126, stated change not applied, chain 1 of 2): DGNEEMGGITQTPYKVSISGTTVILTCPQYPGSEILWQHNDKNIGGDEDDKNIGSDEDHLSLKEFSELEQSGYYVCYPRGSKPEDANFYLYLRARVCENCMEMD
T1 sequence (P04234 22-105, stated change not applied, chain 2 of 2): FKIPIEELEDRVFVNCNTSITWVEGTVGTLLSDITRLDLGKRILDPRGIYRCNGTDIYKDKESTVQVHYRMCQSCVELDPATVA

B1: unilateral CD3/CEA/HER2 trispecific antibody 611 (other)
chain 1: QVQLVQSGGGLVQAGGSLRLSCAASGRTFSSYAMAWFRQAPGKEREFVAAISWSGANIYVADSVKGRFTISRDNAKDTVYLQMNSLKPEDTAVYYCAVKLGFAPVEERQYDYWGQGTQVTVSSGGGGSGGGGSEVKLLESGGGLVQPKGSLKLSCAASGFTFNTYAMNWVRQAPGKGLEWVARIRSKYNNYATYYADSVKDRFTISRDDSQSILYLQMNNLKTEDTAMYYCVRHGNFGNSYVSWFAYWGQGTLVTVSSASTKGPSVFPLAPCSRSTSESTAALGCLVKDYFPEPVTVSWNSGALTSGVHTFPAVLQSSGLYSLSSVVTVPSSSLGTKTYTCNVDHKPSNTKVDKRVESKYGPPCPPCPAPEAAGGPSVFLFPPKPKDTLMISRTPEVTCVVVDVSQEDPEVQFNWYVDGVEVHNAKTKPREEQFNSTYRVVSVLTVLHQDWLNGKEYKCKVSNKGLPSSIEKTISKAKGQPREPQVYTLPPCQEEMTKNQVSLWCLVKGFYPSDIAVEWESNGQPENNYKTTPPVLDSDGSFFLYSRLTVDKSRWQEGNVFSCSVMHEALHNHYTQKSLSLSL
chain 2: EVQLVESGGGFVQAGESLTLSCTSSTLTFTPYRMAWYRQAPGKQRDLVADISSGDGRTTNYADFAKGRFTISRDNIKNTVFLRMTNLKPEDTAVYYCNTFVSFVGIARSWGQGTQVTVSSESKYGPPCPPCPAPEAAGGPSVFLFPPKPKDTLMISRTPEVTCVVVDVSQEDPEVQFNWYVDGVEVHNAKTKPREEQFNSTYRVVSVLTVLHQDWLNGKEYKCKVSNKGLPSSIEKTISKAKGQPREPQVCTLPPSQEEMTKNQVSLSCAVKGFYPSDIAVEWESNGQPENNYKTTPPVLDSDGSFFLVSRLTVDKSRWQEGNVFSCSVMHEALHNRFTQKSLSLSL
chain 3: QAVVTQESALTTSPGETVTLTCRSSTGAVTTSNYANWVQEKPDHLFTGLIGGTNKRAPGVPARFSGSLIGDKAALTITGAQTEDEAIYFCALWYSNLWVFGGGTKVEIKRTVAAPSVFIFPPSDEQLKSGTASVVCLLNNFYPREAKVQWKVDNALQSGNSQESVTEQDSKDSTYSLSSTLTLSKADYEKHKVYACEVTHQGLSSPVTKSFNRGEC
In general, Kd refers to the equilibrium constant for the complex coming apart. Broadly, the koff is the first-order rate constant of dissociation. The term kon denotes the second-order rate constant of association. As to B1, the dissociation constant (Kd) amounted to 1.77 nM in assay [1], 105 nM in assay [2] and 0.195 nM in assay [3]. Moreover, the values for the off-rate constant (koff) in assay [1], in assay [2] and in assay [3] were 0.000727 s⁻¹, 0.0116 s⁻¹ and 0.000108 s⁻¹, respectively. The kon in assay [1] stood at 410000 M⁻¹ s⁻¹; in assay [2], 111000 M⁻¹ s⁻¹; in assay [3], 553000 M⁻¹ s⁻¹.

B2: unilateral CD3/CEA/HER2 trispecific antibody 612 (other)
chain 1: B1 chain 2 with C251Y, S256C, S268W, A270L, V309Y, R337H, F338Y
chain 2: B1 chain 1 with Y487C, C492S, W504S, L506A, Y545V, H573R, Y574F
chain 3: B1 chain 3
Turning to B2, in assay [1], the Kd is 1.77 nM, the dissociation rate constant (koff) stood at 0.000682 s⁻¹ and the kon is 386000 M⁻¹ s⁻¹. For the same molecule, in assay [2], the dissociation constant Kd amounted to 108 nM, the off-rate (koff) stood at 0.0122 s⁻¹ and the kon came out at 113000 M⁻¹ s⁻¹. In addition, in assay [3], the Kd was determined as 0.193 nM, the off-rate (koff) turned out to be 0.000105 s⁻¹ and the kon worked out at 542000 M⁻¹ s⁻¹.
